Experimental data reported in patent US20210252145A1 (CELLASTER, published 2021).

Legend:
[1] = target: T1, Δ619-624 of EPB41L5 (Flag-tagged deletion construct) (human, UniProt Q9HCM4 1-733); test: immunofluorescent staining of MKN28 cells co-transfected with EPB41L5 siRNA and construct
T1 construct: also called A619-624; not shown: Flag tag from vector pSG5-KF2M1-Flag
Method: At this time, the immunofluorescent staining was performed using anti-EPB41L5 mAb and anti-Flag antibodies. Green represents EPB41L5, red represents Flag tag, blue represents Hochest, and scale bars represent 20 μm.
Considering the characteristics of nonpermeabilized immunofluorescent staining, in order to inhibit expression of endogenous EPB41L5, cells were co-transfected with EPB41L5 siRNA and any one plasmid selected from among FL (full length) of EPB41L5, FERM of EPB41L5, C-terminus of EPB41L5 and Δ619-624 of EPB41L5. Then, expression of exogenous EPB41L5 was analyzed using anti-Flag antibody. EPB41L5 expression was detected in […] transfected with FL and C-terminal constructs and in MKN28 cells […] with A619-624 (FIG. 6H).

[2] = target: T2, FERM of EPB41L5 (N-terminal FERM domain construct, Flag-tagged) (human, UniProt Q9HCM4 43-327); test: Western blot of transfected 293T cells
T2 construct: the real construct is only its N-terminal FERM domain; not shown: Flag tag from vector pSG5-KF2M1-Flag
T2 sequence (Q9HCM4 43-327): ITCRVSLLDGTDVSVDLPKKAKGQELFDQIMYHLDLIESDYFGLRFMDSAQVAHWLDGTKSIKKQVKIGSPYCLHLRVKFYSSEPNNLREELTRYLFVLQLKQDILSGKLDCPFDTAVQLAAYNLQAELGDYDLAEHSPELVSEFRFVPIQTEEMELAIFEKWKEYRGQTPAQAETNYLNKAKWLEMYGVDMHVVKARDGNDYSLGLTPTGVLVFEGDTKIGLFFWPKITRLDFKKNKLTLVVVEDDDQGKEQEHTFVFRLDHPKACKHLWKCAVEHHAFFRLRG

T1 sequence (Q9HCM4 other isoform, or with tags, fused parts or gaps mutant): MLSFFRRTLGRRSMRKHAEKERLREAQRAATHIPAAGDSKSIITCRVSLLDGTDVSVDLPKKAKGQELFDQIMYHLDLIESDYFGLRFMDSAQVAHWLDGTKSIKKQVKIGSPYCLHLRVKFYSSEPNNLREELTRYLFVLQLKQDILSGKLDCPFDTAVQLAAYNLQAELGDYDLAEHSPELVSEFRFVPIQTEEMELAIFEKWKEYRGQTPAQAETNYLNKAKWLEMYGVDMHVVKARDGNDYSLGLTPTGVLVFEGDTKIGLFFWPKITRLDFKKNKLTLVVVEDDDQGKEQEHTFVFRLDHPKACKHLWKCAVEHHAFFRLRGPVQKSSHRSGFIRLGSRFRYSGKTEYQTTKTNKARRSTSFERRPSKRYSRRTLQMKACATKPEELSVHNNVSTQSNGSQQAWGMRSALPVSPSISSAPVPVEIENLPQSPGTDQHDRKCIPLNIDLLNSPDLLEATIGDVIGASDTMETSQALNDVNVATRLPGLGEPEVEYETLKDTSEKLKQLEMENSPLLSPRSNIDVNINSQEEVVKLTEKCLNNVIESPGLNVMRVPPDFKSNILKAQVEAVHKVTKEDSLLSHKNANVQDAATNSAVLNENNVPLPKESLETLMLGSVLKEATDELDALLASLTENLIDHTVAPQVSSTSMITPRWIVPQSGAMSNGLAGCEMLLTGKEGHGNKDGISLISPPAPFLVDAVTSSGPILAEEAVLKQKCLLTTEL

B1: anti-EPB41L5 monoclonal antibody (antibody, V domains shown)
VH: QVQLKESGTVLARPGASVKMSCKASGYTFTSYWMHWVKQRPGQGLEWIGAIYPGNSDTSYNQKFKDKAKLTAVTSTSTAYMELSSLTDEASAVYYCTRGGKLPFAMDYWGQGTSVTVSS
VL: DVLMTQTPLSLPVSLGDQASMSCRSSQSLVHSNGNTYLHWYLQKPGQSPKLLIYKVSNRFSGVPDRFSGSGSGTDFTLKISRVEAEDLGVYFCSQSTHVPWTFGGGTKLEIK
notes: also called anti-EPB41L5 mAb; EPB41L5 mAb
[1]
  binding result: no binding
[2]
  binding result: no binding
